Substitutions are numbered along the chain they refer to. Numbered stars: 1 amine (or outer) side, 2 acyl side, 3 side chain; on linkers, the order of the positions; unused ones are H or OH. Square brackets hold non-standard residues; d marks the D form. Side chains are listed from the residue outwards. Ends that are not written are not given here. γGlu = O=C(O)[C@H](CCC(=O)[*:2])N[*:1]; X70 = not defined here; x53 = not defined here; x70 = not defined here; x76 = not defined here; Aib = CC(C)(N)C(=O)O
B1: SEQ ID NO: 206 (peptide)
peptide: H[Aib]QGTFTSDLSKQK([γGlu-x70])DEQKAKLFIEWLKSGGPSSGAPPPS-NH2
modifications: reading uncertain
B2: SEQ ID NO: 214 (peptide)
peptide: H[Aib]QGTFTSDLSKQK([γGlu-X70])DEEAARLFIEWLKAGGPSSGAPPPS-NH2
modifications: reading uncertain
B3: SEQ ID NO: 207 (peptide)
peptide: H[Aib]QGTFTSDLSKQK([γGlu-γGlu-x53])DEQRAKEFIEWLKSGGPSSGAPPPS-NH2
modifications: reading uncertain
B4: SEQ ID NO: 5 (peptide)
peptide: H[Aib]QGTFTSDLSKQK(x53)ESRRAQDFIEWLKAGGPSSGAPPPS-NH2
modifications: reading uncertain
B5: SEQ ID NO: 202 (peptide)
peptide: H[Aib]QGTFTSDLSKQK([γGlu-x76])ESRAAQDFIEWLKAGGPSSGAPPPS-NH2
modifications: reading uncertain
B6: SEQ ID NO: 17 (peptide)
peptide: HXQGTFTSDLSKQKEEEAAKDFIEWLKAGGPSSGAPPPS
modifications: dSer at 2; K(γE-x53) at 14; C-terminal NH2
B7: SEQ ID NO: 219 (peptide)
peptide: B6 peptide with Q3H, K20R, D21L
modifications: dSer at 2; K(γE-X70) at 14; C-terminal NH2
B8: SEQ ID NO: 18 (peptide)
peptide: B6 peptide with K20X
modifications: dSer at 2; K(γE-x53) at 14; Aib at 20; C-terminal NH2
B9: SEQ ID NO: 34 (peptide)
peptide: B6 peptide with E15D, E17Q, K20Q
modifications: dSer at 2; K(γE-x53) at 14; C-terminal NH2
B10: SEQ ID NO: 23 (peptide)
peptide: B6 peptide with E17K, A18K, D21L
modifications: dSer at 2; K(γE-x53) at 14; C-terminal NH2
B11: SEQ ID NO: 22 (peptide)
peptide: B6 peptide with E15D, E17K, K20Q
modifications: dSer at 2; K(γE-x53) at 14; C-terminal NH2
B12: SEQ ID NO: 221 (peptide)
peptide: B6 peptide with E15D, K20R, D21L
modifications: dSer at 2; K(γE-x53) at 14; C-terminal NH2
B13: SEQ ID NO: 220 (peptide)
peptide: B6 peptide with Q3H, E15D, K20R, D21L
modifications: dSer at 2; K(γE-X70) at 14; C-terminal NH2
B14: SEQ ID NO: 222 (peptide)
peptide: B6 peptide with E15D, K20R, D21L
modifications: dSer at 2; K(γE-X70) at 14; C-terminal NH2
B15: SEQ ID NO: 217 (peptide)
peptide: H[Aib]HGTFTSDLSKQK([γGlu-X70])EEEAARLFIEWLKAGGPSSGAPPPS-NH2
modifications: reading uncertain
B16: SEQ ID NO: 31 (peptide)
peptide: H[Aib]QGTFTSDLSKQK([γGlu-x53])DSKAAQDFIEWLKAGGPSSGAPPPS-NH2
modifications: reading uncertain
B17: SEQ ID NO: 38 (peptide)
peptide: H[Aib]QGTFTSDLSKQK([γGlu-x53])ESQAAQEFIEWLKAGGPSSGAPPPS-NH2
modifications: reading uncertain
B18: SEQ ID NO: 226 (peptide)
peptide: H[Aib]QGTFTSDLSKQK([γGlu-γGlu-x53])DEEAARLFIEWLKAGGPSSGAPPPS-NH2
modifications: reading uncertain
B19: SEQ ID NO: 227 (peptide)
peptide: H[Aib]HGTFTSDLSKQK([γGlu-γGlu-x53])DEEAARLFIEWLKAGGPSSGAPPPS-NH2
modifications: reading uncertain
B20: SEQ ID NO: 33 (peptide)
peptide: H[Aib]QGTFTSDLSKQK(x53)ESKAAQDFIEWLKAGGPSSGAPPPS-NH2
modifications: reading uncertain
B21: SEQ ID NO: 36 (peptide)
peptide: H[Aib]QGTFTSDLSKQK([γGlu-x53])ESQAAQDFIEWLKAGGPSSGAPPPS-NH2
modifications: reading uncertain
B22: SEQ ID NO: 41 (peptide)
peptide: H[Aib]QGTFTSDLSKQK([γGlu-x70])ESQAAQDFIEWLKAGGPSSGAPPPS-NH2
modifications: reading uncertain

What follows are binders tested against human glucagon receptor (human, UniProt P47871 26-477) (assay: cell-based or functional assay).
Sequence of human glucagon receptor (P47871 26-477): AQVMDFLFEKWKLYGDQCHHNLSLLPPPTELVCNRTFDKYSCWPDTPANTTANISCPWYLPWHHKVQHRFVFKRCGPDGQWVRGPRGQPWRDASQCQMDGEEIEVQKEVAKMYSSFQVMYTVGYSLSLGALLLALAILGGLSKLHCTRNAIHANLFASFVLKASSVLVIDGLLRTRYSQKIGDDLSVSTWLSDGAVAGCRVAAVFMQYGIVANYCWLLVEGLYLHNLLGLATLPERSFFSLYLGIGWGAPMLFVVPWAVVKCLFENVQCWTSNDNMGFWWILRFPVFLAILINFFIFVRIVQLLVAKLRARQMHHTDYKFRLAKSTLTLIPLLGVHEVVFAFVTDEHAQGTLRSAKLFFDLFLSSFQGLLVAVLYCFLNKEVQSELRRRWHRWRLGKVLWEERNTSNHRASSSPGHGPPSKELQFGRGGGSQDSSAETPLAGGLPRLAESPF

| Binder | EC50 hGlucagon-R (cAMP) [pM] |
| --- | --- |
| B1 | 12.5 |
| B2 | 16 |
| B3 | 1.2 |
| B4 | 109 |
| B5 | 6.9 |
| B6 | 93.1 |
| B7 | 3.7 |
| B8 | 152 |
| B9 | 6.7 |
| B10 | 126 |
| B11 | 2.4 |
| B12 | 9.2 |
| B13 | 2.3 |
| B14 | 2.9 |
| B15 | 2.1 |
| B16 | 9.3 |
| B17 | 53.1 |
| B18 | 19.1 |
| B19 | 1.1 |
| B20 | 473 |
| B21 | 45.9 |
| B22 | 20.7 |

The binders below were run against human GLP-1 receptor (human, UniProt P43220 24-463) (assay: cell-based or functional assay).

| Binder | EC50 hGLP-1R (cAMP) [pM] |
| --- | --- |
| B1 | 3.2 |
| B2 | 4.2 |
| B3 | 1.1 |
| B4 | 11 |
| B5 | 26.2 |
| B6 | 1.7 |
| B7 | 2.1 |
| B8 | 2.6 |
| B9 | 1.5 |
| B10 | 5.6 |
| B11 | 1.1 |
| B12 | 1.5 |
| B13 | 2 |
| B14 | 1.8 |
| B15 | 4.3 |
| B16 | 1.7 |
| B17 | 2.9 |
| B18 | 1.4 |
| B19 | 1.4 |
| B20 | 11.2 |
| B21 | 2.7 |
| B22 | 3.3 |
